According to article PMC3552686, “Biosynthesis of allene oxides in Physcomitrella patens” (BMC Plant Biology, 2012):

Tests used:
Test in all cases: purified protein
Assay type in all cases: biochemical, Physcomitrium patens
[1] = substrate: CC/C=C\C/C=C\C=C\[C@H](CCCCCCCC(=O)O)OO; conditions: pH 6.5, room temperature, 0.1 nM enzyme, kcat corrected to 100% heme
[2] = substrate: CCCCC/C=C\C[C@@H](/C=C/C=C\C/C=C\CCCC(=O)O)OO; conditions: pH 6.5, room temperature, 0.1 nM enzyme, kcat corrected to 100% heme
[3] = substrate: CCCCC/C=C\C=C\[C@H](CCCCCCCC(=O)O)OO; conditions: pH 6.5, room temperature, 0.1 nM enzyme, kcat corrected to 100% heme
[4] = substrate: CC/C=C\C[C@@H](/C=C/C=C\CCCCCCCC(=O)O)OO; conditions: pH 6.5, room temperature, 0.1 nM enzyme, kcat corrected to 100% heme
[5] = substrate: CCCCC/C=C\C=C\[C@H](C/C=C\CCCCC(=O)O)OO; conditions: pH 6.5, room temperature, 0.05 nM enzyme, kcat corrected to 100% heme
[6] = substrate: CCCCC[C@@H](/C=C/C=C\C/C=C\CCCCC(=O)O)OO; conditions: pH 6.5, room temperature, 0.05 nM enzyme, kcat corrected to 100% heme
[7] = substrate: CCCCC[C@@H](/C=C/C=C\CCCCCCCC(=O)O)OO; conditions: pH 6.5, room temperature, 0.1 nM enzyme, kcat corrected to 100% heme

B1: PpAOS1 (Physcomitrium patens) (protein)
chain: MAVPSSKLPLKAIPGDYGVPYFGAIKDRLDYFWLQGEEQFYRSRMAKYNSTVFRVNMPPGPPISEHPQVICLLDQKSFPILFDVSKVEKKDVFTGTYMPSVSFTSGYRVCSYLDPSEERHTKLKQWCFEVIAMNGRNFLPEFHKSIEESMVLWETSLAKGEKTSVSDEVKQFAFNFLMRAVCHHDPAAPGEYSLGRNGGPYATAWANPQLAPIAGQTGLPHVVEELVLHTVPLPSALVKKNYDALYNFIKNYATEALDRAEAMGIERNDATANLLFFLCFNAYGGFSIFFPLITILISSCGPELMHDLHDEVTKAVAATDGKVTLQSIENMPLVKSVVYEAFRFKPPVPYQYGKAKFDFTIENHENSFEVKKGEMLYGYQPIVMHDPKVFSDPDQFLPRRFMGPDGEKLIKYIFWSNGYETDEPTTANKQCAGKDLVVTMARAFVAEMFLRYKEYTLTMEGAGNATKVFFSDLKK
notes: cDNA from protonema library; N-terminal His6 tag kept (pQE30), E. coli SG13009[pRep4]
Km [1]: 39 ± 14 µM | Vmax [1]: 0.2 µM/min | kcat [1]: 112 s⁻¹ | kcat/Km [1]: 2.87e+06 M⁻¹ s⁻¹ | Km [2]: 7 ± 2 µM | Vmax [2]: 0.23 µM/min | kcat [2]: 128 s⁻¹ | kcat/Km [2]: 1.96e+07 M⁻¹ s⁻¹ | Km [3]: 121 ± 61 µM | Vmax [3]: 0.98 µM/min | kcat [3]: 545 s⁻¹ | kcat/Km [3]: 4.5e+06 M⁻¹ s⁻¹ | Km [4]: 95 ± 27 µM | Vmax [4]: 0.9 µM/min | kcat [4]: 501 s⁻¹ | kcat/Km [4]: 5.27e+06 M⁻¹ s⁻¹ | Km [5]: 46 ± 17 µM | Vmax [5]: 2.35 µM/min | kcat [5]: 2610 s⁻¹ | kcat/Km [5]: 5.71e+07 M⁻¹ s⁻¹ | Km [6]: 107 ± 57 µM | Vmax [6]: 2.77 µM/min | kcat [6]: 3080 s⁻¹ | kcat/Km [6]: 2.88e+07 M⁻¹ s⁻¹ | Km [7]: 83 ± 42 µM | Vmax [7]: 0.96 µM/min | kcat [7]: 531 s⁻¹ | kcat/Km [7]: 6.4e+06 M⁻¹ s⁻¹
